This note sets out measurements from US20190127480A1.

The target in the assay is human CD3 expressed on cells (Jurkat cells; human T-cells of PBMC) (human) (UniProt P09693). The assay can be described thus: cell-based or functional assay.
human CD3 expressed on cells (Jurkat cells; human T-cells of PBMC) (human), sequence (chain, as listed by the source, chain 1 of 4): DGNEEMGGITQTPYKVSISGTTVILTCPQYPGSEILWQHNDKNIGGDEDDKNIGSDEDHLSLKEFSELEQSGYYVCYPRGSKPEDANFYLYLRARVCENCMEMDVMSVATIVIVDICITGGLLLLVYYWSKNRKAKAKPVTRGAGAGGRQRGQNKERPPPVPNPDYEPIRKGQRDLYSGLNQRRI
human CD3 expressed on cells (Jurkat cells; human T-cells of PBMC) (human), sequence (chain, as listed by the source, chain 2 of 4): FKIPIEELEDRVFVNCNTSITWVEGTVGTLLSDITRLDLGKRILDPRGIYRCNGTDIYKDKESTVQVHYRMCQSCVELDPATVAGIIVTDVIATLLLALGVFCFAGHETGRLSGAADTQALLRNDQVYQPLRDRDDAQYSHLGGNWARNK
human CD3 expressed on cells (Jurkat cells; human T-cells of PBMC) (human), sequence (P09693 23-182, chain 3 of 4): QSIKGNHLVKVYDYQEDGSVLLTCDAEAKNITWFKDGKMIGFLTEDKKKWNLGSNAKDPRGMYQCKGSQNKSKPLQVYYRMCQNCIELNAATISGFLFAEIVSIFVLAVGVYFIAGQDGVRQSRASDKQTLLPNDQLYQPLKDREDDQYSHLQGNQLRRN
human CD3 expressed on cells (Jurkat cells; human T-cells of PBMC) (human), sequence (P20963 22-164, chain 4 of 4): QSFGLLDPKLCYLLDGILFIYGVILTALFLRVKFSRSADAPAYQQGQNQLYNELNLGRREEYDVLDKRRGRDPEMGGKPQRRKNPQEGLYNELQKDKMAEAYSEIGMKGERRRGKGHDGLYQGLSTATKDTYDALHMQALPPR

B1: H1H5756B (antibody, human IgG1, V domains shown)
VH: EVQLVESGGGVVQPGRSLRLSCTASGFPFSRYGMHWVRQAPGKGLEWVTFIWYDGSNKYYADSAKGRFTITRDNSKNTVYLQMDSLRADDTAVYYCVRDQAALYYFDSWGQGTLVTVSS
VL: DIQMTQSPSSVSASVGDRVTITCRASQGISRWLAWYQQKPGKAPKLLISAASSLQSGVPSRFSGSGSGTDFTLTISGLQPEDFATYYCQKANSFPFTFGPGTKLEIKR
With B1, the U937 Cytotoxicity Human T-cells came out at 76.9 pM.
